In assay [1] the test system is washed platelets. In words: Ristocetin-induced agglutination of washed platelets after preincubation with scFv. The assay is classed as cell-based, human. On the procedure: Aggregation is determined in PRP due to the presence of thrombotic agents, while agglutination is determined in washed platelets. The effect of Y1 (scFv) on agglutination of washed platelets was tested at various concentrations of Y1. Platelets were pre-incubated with Y1 scFv, Y17 scFv, Y16-scFv, or a control TM-1 scFv for 4 min at 37° C. before being exposed to ristocetin, an inducer of platelet agglutination and aggregation.
Platelet concentrate in acid-citrate-dextrose (ACD) was obtained from a blood bank, platelets were isolated, washed once in buffer containing ACD and saline in a ratio of 1:7. The platelets were centrifuged at 800 g for 10 min after each wash and were resuspended in Tyrodes solution (2 mM MgCl2, 137 mM NaCl, 2.68 mM KCl, 3 mM NaH2PO4, 0.1% glucose, 5 mM Hepes and 0.35% albumin, pH 7.35) and count the number of cells.
For platelet aggregation studies, platelet rich plasma (PRP) and washed platelets were stirred at 500 rpm at 37° C. in whole blood Lumiaggregometer (Chronolog, Havertown,Pa.). The difference in light transmission through the platelet suspension and suspending medium was taken as 100% aggregation. The effect of Y1 on platelet aggregation was evaluated by addition of different concentration of Y1 before the addition of agonist, and the effect was recorded for four minutes.
The effect of Y17-scFv on vWF-dependent agglutination of platelets was tested at different concentrations of Y17.

The test system of assay [2] is washed platelets. In words: Effect of Y1-IgG on agglutination of washed platelets with or without ristocetin. As to conditions: IgG 1 μg/ml. The assay is classed as cell-based, human. An excerpt:
Due to its natural structure the full IgG Y1 has two binding sites on GPIbα and one binding site for an Fc receptor. It is likely that if full IgG Y1 binds two GPIbα molecules, it will activate platelets and induce platelet agglutination. Furthermore, because platelets have an Fc-receptor, Y1-IgG can induce platelet agglutination by binding to GPIbα and to an Fc-receptor, thereby producing platelet agglutination by each IgG Y1 binding to three platelets. Therefore, the effect of IgG Y1 on aggregation of washed platelets was tested at different concentrations of Y1-IgG in the presence or absence of ristocetin. Induction of platelet aggregation by Y1-IgG was monitored for 4 min at 37° C., followed by addition of ristocetin.
The results are presented in Table 6 and FIG. 17 without agonist. Y1-IgG alone at a final concentration of 50 μg/ml induced platelet agglutination ˜39% of normal agglutination of washed platelets. Induction of platelet agglutination by Y1-IgG was tested for 4 min at 37° C., followed by addition of ristocetin. […]
For platelet aggregation studies, platelet rich plasma (PRP) and washed platelets were stirred at 500 rpm at 37° C. in whole blood Lumiaggregometer (Chronolog, Havertown,Pa.). […] The effect of Y1 on platelet aggregation was evaluated by addition of different concentration of Y1 before the addition of agonist, and the effect was recorded for four minutes.

Consider one molecule from patent US20040001822A1, “Y1-isolated molecules comprising epitopes containing sulfated moieties, antibodies to such epitopes, and uses thereof” (priority 2000, published 2004).

B1: Y1 scFv: fully human scFv clone binding platelets and myelogenous leukemia cells, SEQ ID NO: 25 (protein, listed as Homo sapiens)
scFv: MKYLLPTAAAGLLLLAAQPAMAEVQLVESGGGVVRPGGSLRLSCAASGFTFDDYGMSWVRQAPGKGLEWVSGINWNGGSTGYADSVKGRFTISRDNAKNSLYLQMNSLRAEDTAVYYCARMRAPVIWGQGTLVTVSRGGGGSGGGGSGGGGSSELTQDPAVSVALGQTVRITCQGDSLRSYYASWYQQKPGQAPVLVIYGKNNRPSGIPDRFSGSSSGNTASLTITGAQAEDEADYYCNSRDSSGNHVVFGGGTKLTVLGAAAEQKLISEEDLNGAA
In the case of B1, the “% agglutination” value in the assay on washed platelets [1] (scFv 4 μg/ml) is listed as 92%; in the assay with washed platelets [1] (scFv 12.5 μg/ml), 67%; with washed platelets [1] (scFv 25 μg/ml, ristocetin = 100% agglutination) it was 23%. The % inhibition (commonly the relative decrease from the control value, in per cent) is recorded as 8% in the assay with washed platelets [1] (scFv 4 μg/ml); “No inhibition” with washed platelets [1] (scFv 4 μg/ml, listed as Y1); 33% in the assay on washed platelets [1] (scFv 12.5 μg/ml); “only partial inhibition” with washed platelets [1] (scFv 12.5 μg/ml, listed as Y1). Further, the “% agglutination Without ristocetin” value in the assay with washed platelets [2] is on record as “no induction”.
